For one assay, the system named is cells. The following applies: Boyce, et al. (2005); cited from earlier work.
In a further assay the target is PP1-GADD34 phosphatase (Homo sapiens, UniProt O75807). The following applies: Boyce, et al. (2005); cited from earlier work.
Assay [1] concerns Hippocampal organotypic cultures. Nature of the assay: Hippocampal organotypic cultures (HOC), in vitro model of myelination, MBP Western blot. The following applies: 7 days; for reduction of MBP expression elicited by IFN-γ exposure: SAL at various concentrations combined with 100 U/ml IFN-γ. The class given is cell-based. How it is done: HOCs, were prepared and maintained as described previously (Kunkler and Kraig (1997) J Cereb Blood Flow Metab. 17:2643), and were maintained in vitro for 7 days before use. SAL at various concentrations was combined with 100 U/ml IFN-γ and added to the HOC cultures for 7 days. […] After 7 days of 100 U/ml IFN-γ exposure, the levels of MBP decreased approximately 80% in the HOCs (FIG. 29).

Assay [2] relates to oligodendrocytes and myelin. Nature of the assay: IFN-γ-overexpressing mice crossed to PLP/SOCS1 mice, clinical and histological evaluation at postnatal day 21. The class given is in vivo. The following applies: for Incidence of tremor: ten mice per group; for oligodendrocyte density: corpus callosum, postnatal day 21. How it is done: IFN-γ-overexpressing mice were crossed to the PLP/SOCS1 mice in double-transgenic, (MBP/IFN-γ×PLP/SOCS1) and triple-transgenic (GFAP/tTA×TRE/IFN-γ×PLP/SOCS1) mating systems. MBP/IFN-γ×PLP/SOCS1 (172×PLP/SOCS1) mating was performed according to a standard mating protocol. The GFAP/tTA×TRE/IFN-γ×PLP/SOCS1 matings were performed in a 2-step mating process: GFAP/tTA mice were initially crossed to PLP/SOCS1 mice, and double-positive (184×PLP/SOCS1) offspring were then crossed to the TRE/IFN-γ lines 110 and 67, separately. This second mating step was performed according to the previously described “tet-off” protocol. Doxycycline 0.05 mg/ml (Sigma-Aldich) was added to the water of impregnated female mice until embryonic day 14, after which the animals were switched back to normal water, thereby allowing initiation of IFN-γ transcription, which peaks during the postnatal period (Lin et al., 2005).
The litters of the mating systems (F1 generation) were examined daily and sacrificed at postnatal day 21. Clinical evaluation included behavioral observation and challenged ladder walking to elicit tremor. Histological examination included quantitation of the number and density of oligodendrocytes and examination of the myelination patterns. Brain tissue was simultaneously obtained from each animal at the time of sacrifice to verify and measure the expression of IFN-γ and Flag-SOCS1 (see below). The clinical and histological findings were subsequently stratified according to genotype. All animal procedures were conducted in compliance with the National Institutes of Health Guide for Care and Use of Laboratory Animals and were approved by the Institutional Animal Care and Use Committee at The University of Chicago.
Oligodendrocyte cell density was assessed digitally using Axiovision software, at postnatal day 21, as previously described (Lin et al., 2005). The brains were sectioned sagittally through the corpus callosum dividing the brain in two symmetrical halves. Ten frozen sections from each half were prepared at 7 μm thickness, and numbered in the sequence of their preparation. The brains of three animals per study group were prepared in this fashion. Following the CC1 immunostaining the corresponding area of corpus callosum of each section was digitally selected and the corresponding total area obtained. CC1 cell counting was performed manually within the selected areas of each section, and the number of CC1 positive cells per square area (mm^2) calculated. The results were presented as mean±SD of CC1 (+) cells/mm^2 with n=3 animals per study group.
Myelination patterns of the examined animals were assessed at postnatal day 21 by calculating the percent unmyelinated axons and ratio of the axon/fiber diameters (G ratio) with Image J software (National Institutes of Health, Bethesda, Md.) as previously described (Lin at al., 2005). The brains were sectioned sagittally through the corpus callosum dividing the brain in two symmetrical halves. Approximately 2 mm^3 samples from the genu and the splenum of both halves of corpus callosum were obtained using a Wild M3C stereotype microscope. The orientation of the specimen in the resin blocks yielding axonal cross-sections (well seen myelin rings) was chosen, and established by toluedine blue staining of a few sample sections. The resin blocks with the chosen orientation were processed for electron microscope examination. Randomly selected areas were examined and ten representative pictures from both genu and splenum corpus callosum were obtained at 12000× magnification. The number of unmyelinated axons was assessed by manual counting of axons that lacked myelin and were encircled solely by their own plasma membrane. All unmyelinated axons present in the representative images were counted, and their percentage calculated by examining a total of five hundred axons per tissue sample. […]

Chain of PP1-GADD34 phosphatase (O75807 whole entry): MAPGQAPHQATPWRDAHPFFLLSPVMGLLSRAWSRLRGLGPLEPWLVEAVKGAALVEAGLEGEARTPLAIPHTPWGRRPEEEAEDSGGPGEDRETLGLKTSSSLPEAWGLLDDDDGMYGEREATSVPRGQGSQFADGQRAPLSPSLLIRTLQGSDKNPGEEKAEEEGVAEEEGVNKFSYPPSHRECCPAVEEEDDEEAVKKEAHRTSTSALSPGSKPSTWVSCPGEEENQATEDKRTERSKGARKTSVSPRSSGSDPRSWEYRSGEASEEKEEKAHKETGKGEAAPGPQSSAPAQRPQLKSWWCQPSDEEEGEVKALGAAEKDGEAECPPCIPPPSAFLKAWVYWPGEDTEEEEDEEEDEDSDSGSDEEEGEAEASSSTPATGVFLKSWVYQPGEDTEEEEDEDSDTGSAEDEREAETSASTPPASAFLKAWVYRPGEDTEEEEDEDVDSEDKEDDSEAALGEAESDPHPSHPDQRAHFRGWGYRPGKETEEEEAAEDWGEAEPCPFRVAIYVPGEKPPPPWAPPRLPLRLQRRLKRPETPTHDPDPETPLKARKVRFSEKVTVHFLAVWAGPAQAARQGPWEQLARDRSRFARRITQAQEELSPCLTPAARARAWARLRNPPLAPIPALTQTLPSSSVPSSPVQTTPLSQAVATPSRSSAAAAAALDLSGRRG

For `O=C(/C=C/c1ccccc1)NC(NC(=S)Nc1cccc2cccnc12)C(Cl)(Cl)Cl` (centres unmarked) [SAL, salubrinal], the “protection of cells from ER stress and viral infection” value in the assay on cells is “protects cells from ER stress and viral infection”. Also, the PP1-GADD34 phosphatase activity result on PP1-GADD34 phosphatase is on record as “specifically inhibits”. The “reduction of MBP expression elicited by IFN-γ exposure” value in assay [1] is listed as “markedly attenuated”; in assay [1] (listed as Sal), “attenuating effect”. The MBP expression result in assay [1] (SAL treatment alone) was “did not affect”.

B1: SOCS1: suppressor of cytokine signaling 1, Flag-tagged, expressed in oligodendrocytes from the PLP/SOCS1 transgene (protein, UniProt O35716 1-212, looked up)
Suppressor of cytokine …: MVARNQVAADNAISPAAEPRRRSEPSSSSSSSSPAAPVRPRPCPAVPAPAPGDTHFRTFRSHSDYRRITRTSALLDACGFYWGPLSVHGAHERLRAEPVGTFLVRDSRQRNCFFALSVKMASGPTSIRVHFQAGRFHLDGSRETFDCLFELLEHYVAAPRRMLGAPLRQRRVRPLQELCRQRIVAAVGRENLARIPLNPVLRDYLSSFPFQI
modifications: FLAG tag
notes: suppressor of cytokine signaling 1, Flag-tagged, expressed in oligodendrocytes from the PLP/SOCS1 transgene
B1: the Incidence of tremor in assay [2] (172 × PLP/SOCS1 littermates), in assay [2] (184/67 × PLP/SOCS1 littermates) and in assay [2] (184/110 × PLP/SOCS1 littermates) was 0% throughout. Also, the oligodendrocyte density is given as 142±5 CC1 (+) cells/mm^2 in assay [2] (184/67 system) and 141±6 CC1 (+) cells/mm^2 in assay [2] (184/110 system). Moreover, the “MHC class I molecule expression (immunostaining)” value in assay [2] (MBP/IFN-γ and MBP/IFN-γ×PLP/SOCS1 brains) is listed as “did not express detectable levels”.
